Reference: paper PMC9271601

Biological target: H7N9 A/Shanghai/2/2013 hemagglutinin trimer, wild type (influenza A virus A/Shanghai/02/2013 (H7N9)) (UniProt R4NN21)
Experiment: cryo-EM structure

H7N9 A/Shanghai/2/2013 hemagglutinin trimer, wild type (from UniProt R4NN21) (natural protein)
stoichiometry N: 3
